Reference: patent US20220204575A1, “MODULATING SURVIVAL OF THERAPEUTIC CELLS AND METHODS, CELLS AND NUCLEIC ACIDS RELATED THERETO” (The Regents of the University of California, priority 2019, published 2022)

What was measured:
[1] = tested on: human primary CD4 T cells; assay: Anti-Her2 synNotch driving pro-apoptotic BCL-2 family protein X, T cell survival with antigen-expressing target cells; type: cell-based; settings: for induced apoptosis of T cells: in the presence of antigen-expressing target cells
Procedure: For example, a circuit was designed, as schematically depicted in FIG. 27, with an anti-Her2 synNotch driving expression of a pro-apoptotic BCL-2 family protein “X”, where X stands for the various pro-apoptotic BCL-2 family members were tested in the depicted circuit. As shown, upon the anti-Her2 scFv portion of the synNotch receptor binding Her2 expressed by a target cell, the transcription factor (TF) portion of the synNotch, containing Gal4-VP64, is released and inducing expression of the pro-apoptotic BCL-2 family protein “X”. The level of induced apoptosis in the presence of cells expressing the target antigen, as compared to control cells not expressing the target antigen, was then assessed.
Results of testing BID, tBID, PUMA, BMF, HRK and BIK as pro-apoptotic BCL-2 family protein “X” in this system are shown in FIG. 28, along with a negative control employing BFP in place of the pro-apoptotic BCL-2 family protein “X”.
Thus, the therapeutic cells encoding the BID circuit were able to survive BID induction.

[2] = tested on: primary human T cells; assay: Constitutive overexpression of pro-apoptotic BCL-2 family proteins in T cells, FACS at culture day 12; type: cell-based; settings: constitutive expression
Procedure: The abilities of several pro-apoptotic proteins (e.g., BIM, truncated Bid (tBID), and BAD) to induce T cell apoptosis when synthetically overexpressed from a constitutive promoter were tested. The tested T cells were also engineered to constitutively overexpress anti-apoptotic BCL-2.
Without being bound by theory, these effects were likely due to leaky expression of BIM, the high effectiveness of BIM in inducing apoptosis, or a combination thereof.

Row | Molecule | induced apoptosis of T cells [1] | relative level of induced therapeutic cell killing ([1]; comparison among tBID, PUMA, BMF, HRK and BIK) | ability to drive T cell death ([2]; in the absence of overexpressed BCL-2) | ability to induce T cell apoptosis / drive T cell death ([2]; with constitutive overexpression of BCL-2, culture day 12)
1 | PUMA: pro-apoptotic PUMA protein, human UniProt Q9BXH1 (protein, UniProt Q9BXH1 1-193, looked up) Bcl-2-binding component 3, …: MARARQEGSSPEPVEGLARDGPRPFPLGRLVPSAVSCGLCEPGLAAAPAAPTLLPAAYLCAPTAPPAVTAALGGSRWPGGPRSRPRGPRPDGPQPSLSLAEQHLESPVPSAPGALAGGPTQAAPGVRGEEEQWAREIGAQLRRMADDLNAQYERRRQEEQQRHRPSPWRVLYNLIMGLLPLPRGHRAPEMEPN | induce apoptosis of human primary CD4 T cells |  |  | 
2 | BIK: pro-apoptotic BIK protein, human UniProt Q13323, SEQ ID NO: 104 (protein) MSEVRPLSRDILMETLLYEQLLEPPTMEVLGMTDSEEDLDPMEDFDSLECMEGSDALALRLACIGDEMDVSLRAPRLAQLSEVAMHSLGLAFIYDQTEDIRDVLRSFMDGFTTLKENIMRFWRSPNPGSWVSCEQVLLALLLLLALLLPLLSGGLHLLLK | induce apoptosis of human primary CD4 T cells | lower level of induced therapeutic cell killing |  | 
3 | BAD: pro-apoptotic BH3-only BCL-2 family protein, UniProt Q92934, heterologously expressed in T cells (protein, UniProt Q92934 1-168, looked up) Bcl2-associated agonist of …: MFQIPEFEPSEQEDSSSAERGLGPSPAGDGPSGSGKHHRQAPGLLWDASHQQEQPTSSSHHGGAGAVEIRSRHSSYPAGTEDDEGMGEEPSPFRGRSRSAPPNLWAAQRYGRELRRMSDEFVDSFKKGLPRPKSAGTATQMRQSSSWTRVFQSWWDRNLGRGSSAPSQ |  |  | insufficient to drive T cell death | insufficient to drive T cell death
